We go through 41 sequences from the supplement of paper PMC7877785.

± gives the uncertainty stated by the source.

The nature of the series: self-splicing fitness, log relative to wild type (ln ratio); higher = more splicing; Tetrahymena group I intron in knt gene, E. coli kanamycin selection, DiMSum; sequences stand for … in CUCUCU…GGAGGGAAAAGUUAUCAGGCAUGCACCUGGUAGCUAGUCUUUAAACCAAUAGAUUGCAUCGGUUUAAAAGGCAAGACCGUCAAAUUGCGGGAAAGGGGUCAACAGCCGUUCAGUACCAAGUCUCAGGGGAAACUUUGAGAUGGCCUUGCAAAGGGUAUGGUAAUAAGCUGACGGACAUGGUCCUAACCACGCAGCCAAGUCCUAAGUCAACAGAUCUUCUGUUGAUAUGGAUGCAGUUCACAGACUAAAUGUCGGUCGGGGAAGAUGUAUUCUUCUCAUAAGAUAUAGUCGGACCUCUCCUUAAUGGGAGCUAGCGGAUGAAGUGAUGCAACACUGGAGCCGCUGGGAACUAAUUUGUAUGCGAAAGUAUAUUGAUUAGUUUUGGAGUACUCGUGGUCG
An outline of the steps: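 Colonies from six replicate transformations of E. coli BL21(DE3) were pooled and amplicon-sequenced on an Illumina HiSeq 2500. The library placed an intron with all eight P1ex-region nucleotides randomised inside the knt kanamycin-resistance gene on pET-22b(+), and cells grew overnight at 37°C or 30°C on LB agar with or without 25 μg/mL kanamycin (plus 100 μg/mL carbenicillin, 50 μM IPTG, 0.2% rhamnose). Fitness is the DiMSum error-weighted combination of wild-type-normalised replicate fold changes, kanamycin versus none.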

With GUGCAGCAAUAUUACGUCCU, the “self-splicing fitness (ln)” value is, setting by setting: (30 °C) -0.637 ± 0.12; (37 °C) -0.541 ± 0.096.

For GUGCAGCAAUAUUACGUCGA, the “self-splicing fitness (ln)” value reads like this: (30 °C) -1.22 ± 0.096; (37 °C) -0.927 ± 0.1.

As for GUGCAGCAAUAUUACGUGGU, the “self-splicing fitness (ln)” value (30 °C) was -2.55 ± 0.078 and the “self-splicing fitness (ln)” value (37 °C) was -1.1 ± 0.091.

As to GUGCAGCAAUAUUACGUUCG, the “self-splicing fitness (ln)” value is -1.52 ± 0.09 (30 °C) and -0.675 ± 0.14 (37 °C).

With GUGGAGCAAUAUUACGAAAC, the “self-splicing fitness (ln)” value (37 °C) was -2.23 ± 0.3.

GUGGAGCAAUAUUACGAAGG: the “self-splicing fitness (ln)” value is -2.69 ± 0.27 (30 °C) and -2 ± 0.4 (37 °C).

Regarding GUGGAGCAAUAUUACGACCU, the “self-splicing fitness (ln)” value is -1.22 ± 0.094 (30 °C) and -0.548 ± 0.11 (37 °C).

With GUGGAGCAAUAUUACGAGAU, the “self-splicing fitness (ln)” value is, setting by setting: (30 °C) -3.23 ± 0.36; (37 °C) -2.22 ± 0.41.

As to GUGGAGCAAUAUUACGAGCC, where the note is “37 °C”, the “self-splicing fitness (ln)” value is -1.59 ± 0.35.

As to GUGGAGCAAUAUUACGCUAU, under “30 °C”, the “self-splicing fitness (ln)” value was -2.85 ± 0.25.

As for GUGGAGCAAUAUUACGCUCG, the “self-splicing fitness (ln)” value reads like this: (30 °C) -1.35 ± 0.16; (37 °C) -1.39 ± 0.23.

For GUGGAGCAAUAUUACGGAGG, the “self-splicing fitness (ln)” value reads like this: (30 °C) -2.41 ± 0.28; (37 °C) -0.95 ± 0.28.

In the case of GUGGAGCAAUAUUACGGGGA, the “self-splicing fitness (ln)” value reads like this: (30 °C) -3.12 ± 0.44; (37 °C) -2.65 ± 0.4.

For the sequence GUGGAGCAAUAUUACGGGUA, the “self-splicing fitness (ln)” value is -2.09 ± 0.31 (30 °C) and -2.4 ± 0.45 (37 °C).

As to GUGGAGCAAUAUUACGGGUU, the “self-splicing fitness (ln)” value (30 °C) was -3.16 ± 0.18 and the “self-splicing fitness (ln)” value (37 °C) is -3.15 ± 0.48.

Turning to GUGGAGCAAUAUUACGUCGA, the “self-splicing fitness (ln)” value (30 °C) is -3.42 ± 0.37 and the “self-splicing fitness (ln)” value (37 °C) was -1.48 ± 0.3.

As to GUGGAGCAAUAUUACGUCUG, for the setting “37 °C”, the “self-splicing fitness (ln)” value is -1.75 ± 0.32.

For the sequence GUGGAGCAAUAUUACGUGUA, the “self-splicing fitness (ln)” value was -2.68 ± 0.2 (30 °C) and -2.85 ± 0.24 (37 °C).

With GUGGAGCAAUAUUACGUGUU, the “self-splicing fitness (ln)” value (30 °C) was -4.54 ± 0.47.

GUGGAGCAAUAUUACGUUUC: the “self-splicing fitness (ln)” value runs as follows: (30 °C) -3.39 ± 0.37; (37 °C) -1.9 ± 0.21.

For GUGUAGCAAUAUUACGAACU, the “self-splicing fitness (ln)” value (30 °C) was -1.57 ± 0.25 and the “self-splicing fitness (ln)” value (37 °C) was -0.299 ± 0.2.

In the case of GUGUAGCAAUAUUACGAAUG, the “self-splicing fitness (ln)” value (37 °C) is -1.51 ± 0.25.

In the case of GUGUAGCAAUAUUACGAAUU, the “self-splicing fitness (ln)” value (30 °C) was -2.33 ± 0.064 and the “self-splicing fitness (ln)” value (37 °C) is -1.85 ± 0.097.

For GUGUAGCAAUAUUACGACAG, the “self-splicing fitness (ln)” value (30 °C) is -2.07 ± 0.42.

For the sequence GUGUAGCAAUAUUACGACCU, the “self-splicing fitness (ln)” value is, setting by setting: (30 °C) -0.216 ± 0.27; (37 °C) 0.601 ± 0.24.

Consider GUGUAGCAAUAUUACGACUG, for which the “self-splicing fitness (ln)” value (30 °C) is -1.71 ± 0.25 and the “self-splicing fitness (ln)” value (37 °C) was -1.47 ± 0.42.

Take GUGUAGCAAUAUUACGAGUC: the “self-splicing fitness (ln)” value (30 °C) was -1.74 ± 0.36 and the “self-splicing fitness (ln)” value (37 °C) was -1.03 ± 0.3.

On to GUGUAGCAAUAUUACGAUCA, for which the “self-splicing fitness (ln)” value runs as follows: (30 °C) -0.818 ± 0.13; (37 °C) -0.543 ± 0.14.

In the case of GUGUAGCAAUAUUACGCCCG, the “self-splicing fitness (ln)” value was -2.51 ± 0.35 (30 °C) and -0.74 ± 0.23 (37 °C).

Take GUGUAGCAAUAUUACGCCGA: the “self-splicing fitness (ln)” value (37 °C) was -2.39 ± 0.42.

In the case of GUGUAGCAAUAUUACGCUAC, the “self-splicing fitness (ln)” value (30 °C) is -2.35 ± 0.49.

For the sequence GUGUAGCAAUAUUACGGACU, the “self-splicing fitness (ln)” value is, setting by setting: (30 °C) -0.979 ± 0.1; (37 °C) -0.103 ± 0.12.

GUGUAGCAAUAUUACGGAUA: the “self-splicing fitness (ln)” value (30 °C) is -2.46 ± 0.23 and the “self-splicing fitness (ln)” value (37 °C) was -0.0303 ± 0.17.

Regarding GUGUAGCAAUAUUACGGAUC, the “self-splicing fitness (ln)” value is -1.04 ± 0.13 (30 °C) and 0.406 ± 0.17 (37 °C).

Consider GUGUAGCAAUAUUACGGCAU, for which the “self-splicing fitness (ln)” value is -3.48 ± 0.41 (30 °C) and -0.582 ± 0.2 (37 °C).

Take GUGUAGCAAUAUUACGGCCG: the “self-splicing fitness (ln)” value (30 °C) was -0.432 ± 0.22 and the “self-splicing fitness (ln)” value (37 °C) was -0.71 ± 0.34.

As to GUGUAGCAAUAUUACGGCGC, the “self-splicing fitness (ln)” value is -2.06 ± 0.44 (30 °C) and -0.968 ± 0.32 (37 °C).

Take GUGUAGCAAUAUUACGUACG: the “self-splicing fitness (ln)” value is, setting by setting: (30 °C) -2.64 ± 0.23; (37 °C) -1.14 ± 0.16.

GUGUAGCAAUAUUACGUAGC: the “self-splicing fitness (ln)” value (30 °C) is -3.09 ± 0.23 and the “self-splicing fitness (ln)” value (37 °C) is -1.41 ± 0.28.

For the sequence GUGUAGCAAUAUUACGUCGU, the “self-splicing fitness (ln)” value is, setting by setting: (30 °C) -1.67 ± 0.15; (37 °C) -1.1 ± 0.16.

As to GUGUAGCAAUAUUACGUGGA, the “self-splicing fitness (ln)” value runs as follows: (30 °C) -3.41 ± 0.3; (37 °C) -2.04 ± 0.23.
